Assay results published in patent publication US20260167741A1.

Key:
[1] = target: tetrameric FcγRI-streptavidin-His labelled with Alexa647 (human) (UniProt P12314); experiment: flow cytometry: SKOV-3 (HER2-expressing) cells treated with 100 nM antibody, then tetrameric FcγRI-Alexa647 (50 or 100 nM by paragraph 186, not said on the sheet)
[2] = target: monomeric FcγRIIa-131H (human) (UniProt P12318); experiment: BLI (Octet), steady-state, antibody on FAB2G sensor
[3] = target: monomeric FcγRIIa-131R (human) (UniProt P12318); experiment: as above
[4] = target: monomeric FcγRIIb (human) (UniProt P31994); experiment: as above
[5] = target: monomeric FcγRIIIa-158F (human) (UniProt P08637); experiment: BLI (Octet), antibody on FAB2G sensor, monomeric FcγR in solution
monomeric FcγRI (human) = monomeric FcγRI (human) (UniProt P12314); experiment: as above
[6] = target: monomeric FcγRIIIa-158V (human) (UniProt P08637); experiment: as above
Chain of monomeric FcγRIIIa-158V (human) (P08637 17-208 F176V limits assumed): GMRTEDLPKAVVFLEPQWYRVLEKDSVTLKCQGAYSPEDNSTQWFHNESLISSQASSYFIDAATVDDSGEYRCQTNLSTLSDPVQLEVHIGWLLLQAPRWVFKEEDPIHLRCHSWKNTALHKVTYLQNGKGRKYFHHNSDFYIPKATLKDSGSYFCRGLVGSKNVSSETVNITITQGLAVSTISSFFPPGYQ

Chain of monomeric FcγRI (human) (P12314 16-292 limits assumed): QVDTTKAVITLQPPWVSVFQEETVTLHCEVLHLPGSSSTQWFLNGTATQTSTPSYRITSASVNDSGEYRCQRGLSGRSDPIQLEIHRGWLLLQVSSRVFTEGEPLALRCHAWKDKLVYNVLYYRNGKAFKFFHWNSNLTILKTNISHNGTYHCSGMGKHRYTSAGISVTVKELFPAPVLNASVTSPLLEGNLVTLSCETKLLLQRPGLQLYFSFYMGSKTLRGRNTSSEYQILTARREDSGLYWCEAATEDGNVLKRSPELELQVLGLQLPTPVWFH
Chain of monomeric FcγRIIIa-158F (human) (P08637 17-208 limits assumed): as the sequence (P08637 17-208 F176V limits assumed) above, with V160F counted along it
Chain of monomeric FcγRIIa-131H (human) (P12318 34-217 limits assumed): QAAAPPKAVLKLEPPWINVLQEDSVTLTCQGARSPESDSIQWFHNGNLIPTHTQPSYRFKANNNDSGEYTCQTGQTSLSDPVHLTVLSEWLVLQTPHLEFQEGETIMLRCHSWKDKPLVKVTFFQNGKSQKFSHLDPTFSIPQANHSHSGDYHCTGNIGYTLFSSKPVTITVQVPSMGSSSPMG
Chain of monomeric FcγRIIb (human) (P31994 43-217 limits assumed): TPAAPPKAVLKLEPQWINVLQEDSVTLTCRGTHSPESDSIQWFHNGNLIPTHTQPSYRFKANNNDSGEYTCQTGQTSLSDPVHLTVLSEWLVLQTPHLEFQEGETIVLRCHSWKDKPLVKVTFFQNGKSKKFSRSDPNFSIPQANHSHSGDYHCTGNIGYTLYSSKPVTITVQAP
Chain of monomeric FcγRIIa-131R (human) (P12318 34-217 H167R limits assumed): as the sequence (P12318 34-217 limits assumed) above, with H134R counted along it
Chain of tetrameric FcγRI-streptavidin-His labelled with Alexa647 (human) (P12314 other isoform, or with tags, fused parts or gaps limits assumed): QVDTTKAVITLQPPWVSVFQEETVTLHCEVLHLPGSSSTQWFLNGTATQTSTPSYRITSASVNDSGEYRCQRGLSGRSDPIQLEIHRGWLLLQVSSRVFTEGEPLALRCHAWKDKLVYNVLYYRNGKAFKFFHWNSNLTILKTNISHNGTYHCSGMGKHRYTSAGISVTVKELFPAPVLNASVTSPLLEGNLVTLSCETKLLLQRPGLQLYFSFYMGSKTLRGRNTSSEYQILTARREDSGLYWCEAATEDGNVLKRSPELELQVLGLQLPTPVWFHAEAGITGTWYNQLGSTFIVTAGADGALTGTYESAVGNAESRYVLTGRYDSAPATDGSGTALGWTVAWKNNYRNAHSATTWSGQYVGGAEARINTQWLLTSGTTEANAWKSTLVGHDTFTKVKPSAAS

MFI [1]: 709
Kd [2]: 38 µM
Kd [3]: 22 µM
Kd [4]: 390 µM
Kd [5]: 1.36 µM
koff [5]: 0.033 s⁻¹
kon [5]: 24300 M⁻¹ s⁻¹
Kd (monomeric FcγRI (human)): 0.136 µM
koff (monomeric FcγRI (human)): 0.0203 s⁻¹
kon (monomeric FcγRI (human)): 149000 M⁻¹ s⁻¹
Kd [6]: 1.19 µM
koff [6]: 0.0833 s⁻¹
kon [6]: 70200 M⁻¹ s⁻¹
Substance: Trastuzumab-LALA (antibody)
